The RNAGym collection of RNA variant scans (doi:10.7554/elife.80360)

B1: Hammerhead Ribozyme (parent)
chain: ACCGGAUGUGCUUUCCGGUCUGAUGAGUCCGUGAGGACGAAACAG

Variants of: B1
Experiment: self-cleavage, relative activity (ratio to wild type); higher = more cleavage; co-transcriptional

Variant | self-cleavage
U21C U32G | 0.947
U21C A44U | 0.571
A23C A26C | 0.376
U14A G31A | 0.81
U7G G33C | 1.23
G4A G17A | 0.337
G22C A40C | 0.339
C11A U32C | 1.06
G18U G36U | 0.425
U14C U21G | 0.319
A34C G45C | 0.441
G10C A23U | 0.447
G36A A41G | 0.344
A40C A42C | 0.369
C15G G35A | 0.468
U12G C20U | 0.667
G5A C30U | 1.43
U13G G18C | 0.696
A6G U9C | 0.834
U13A A41G | 0.311
C30G C38U | 0.797
U19C C30G | 0.459
C3G G33C | 0.468
C3G G33A | 0.577

Variant | self-cleavage
C2A G10C | 0.662
C38A G39U | 0.315
G10C G39A | 0.368
U7C C43G | 0.346
C38A A40U | 0.307
U19C G35C | 0.492
U19G G27U | 0.292
U7C U13C | 1.4
A1U A37U | 0.464
A1U A37C | 0.556
U13G G36C | 0.709
U19A G27A | 0.34
U19A G27C | 0.401
U24G A42U | 0.324
U21G U24C | 0.391
G10U C20U | 0.579
C2A A23G | 0.334
C15U G25U | 0.314
G4A G8C | 0.46
G18A G25A | 0.281
C15A G17C | 0.328
C11G C20A | 0.477
C11A C15A | 0.851
G17C A44G | 0.664

Variant | self-cleavage
C15A A26U | 0.446
U14G G25A | 0.315
G18A A42C | 0.376
G5C A44U | 0.358
U13G U32A | 1.01
U24A A41C | 0.371
G17C G36C | 0.246
U14G A44G | 1.32
G10C C15G | 0.524
G4A A40C | 0.359
A1U U13G | 0.812
A1U U13A | 1.02
C3A G39U | 0.235
C29G G31U | 0.777
C2U | 1.17
U9A C11A | 1.19
C11U U28C | 0.954
A34U G35C | 0.631
U24C G35A | 0.702
U14G G36A | 0.729
G10A G33A | 1.21
G8C A40U | 0.286
A6U G39A | 0.281
A1G A26G | 0.397

Variant | self-cleavage
G10A A42G | 0.288
G8U A23U | 0.324
G17A G22C | 0.319
C3U U7C | 0.743
U7A U12G | 1.33
G36U A42C | 0.37
G18U G39C | 0.32
C15A U19A | 0.365
A1G A6G | 1.5
C3A G10C | 0.587
A6G U7G | 1.35
A6G C20G | 0.236
U12A U14C | 0.946
G22C A23C | 0.28
U9C C43A | 0.314
C20G A34C | 0.365
A1C G39U | 0.341
G31A U32C | 1
G18U A40C | 0.394
U13A A23C | 0.503
C3A A40G | 0.353
G4U A44G | 0.789
U21G A44U | 0.285
G10U U21A | 0.605

Variant | self-cleavage
G8U A44U | 0.688
G27U C30U | 0.456
C15U U19C | 0.581
C15U U19G | 0.327
C15U U19A | 0.344
U7G C30A | 1.21
G10U C15U | 1.07
C3A U13G | 0.847
U9G G10U | 1.05
U12A G25A | 0.303
C2U G39C | 0.336
G5C A37U | 0.238
C3U G8U | 0.945
U28C G36A | 0.634
U13G G27C | 0.546
G17U A44G | 0.877
G5U C29A | 0.402
U14A C29A | 0.608
G4U C15A | 0.425
G4U C15G | 0.436
G18A U21G | 0.404
C16U U19C | 0.572
A23C G39C | 0.357
G4A G36C | 0.343

Variant | self-cleavage
U21C A26U | 0.503
U24G A44C | 0.617
C2G U14G | 0.309
C20U A42U | 0.322
U9C A23C | 0.283
U7C G10C | 0.781
A1U C3A | 0.767
G10A G22U | 0.319
A6G A44C | 0.523
C29U A41G | 0.275
C11U C20G | 0.327
A6C C38A | 0.469
G18A C29A | 0.44
G4U G36A | 0.321
C16U A41C | 0.301
C3A A37U | 0.388
A6U A40U | 0.351
U28G G36U | 0.35
U9G C11U | 0.342
G10U A37U | 0.768
A6G A42G | 0.275
C16A A23G | 0.357
A44G G45U | 1.93
C11U U12G | 1.18

Variant | self-cleavage
C11U G39U | 0.3
G31C G35A | 0.966
C30U A41G | 0.35
U32C G39C | 0.375
G31U A34C | 0.84
A23U A40U | 0.371
U24C C29U | 1.05
U13A U21C | 0.908
G36C G45C | 0.393
C3A G33U | 0.733
U21C G31C | 0.678
G8C A44C | 0.608
U13C C16A | 1.05
C30G A37G | 0.571
U7C U21A | 0.327
A1U G4C | 0.353
G10U C16U | 1.17
U12A A34C | 1.08
A26G U28C | 0.383
C20G A40U | 0.355
A1C C38A | 0.408
A1G G5U | 0.805
G18U A42C | 0.371
